System: NCI-H292 cells
Assay: AB-PAS staining of mucus glycoprotein in NCI-H292 cells
Assay type: cell-based, human
Settings: FIG. 1 and 2
Method: NCI-H292 cells (human pulmonary mucoepidermoid tumor cell strain, purchased from ATCC) were suspended in 10% FCS (Fetal Calf Serum)-containing RPMI-1640 (produced by Gibco Corp.), sowed on a Lab-Tek 8 well chamber slide (produced by Nunc Corp.) in a density of 6.0×10^4 cells/cm^2, cultured for 72 hours, subjected to the replacement of the culture solution by RPMI-1640 containing 0.1% of BSA, and further cultured for 24 hours.
On the day of the treatment, the culture solution of each well was replaced by RPMI-1640 (containing 0.1% BSA) containing EGF (5 ng/mL, produced by Becton Dickinson Corp.), HB-EGF (5 ng/mL, produced by R & D Corp.), TGF-α (5 ng/mL, produced by Peprotech Corp.), or PBS to start the treatment. Then, the cells were incubated at 37° C. for 24 hours.
After the prescribed 24 hours treatment, the culture supernatant was removed. The residue was once washed with PBS, mixed with 4% paraformaldehyde/PBS, and then allowed to stand at room temperature for one hour to immobilize the cells. The immobilized cells were twice washed with Milli Q water and then stained with AB-PAS. The staining was carried out according to a book (“All of new dyeing methods” p136-150 (Iyaku Shuppansha)). […]

B1: EGF: Epidermal Growth Factor, EGFR ligand, produced by Becton Dickinson Corp. (protein)
chain: PQHWSCPEGTLAGNGNSTCVGPAPFLIFSHGNSIFRIDTEGTNYEQLVVDAGVSVIMDFHYNEKRIYWVDLERQLLQRVFLNGSRQERVCNIEKNVSGMAINWINEEVIWSNQQEGIITVTDMKGNNSHILLSALKYPANVAVDPVERFIFWSSEVAGSLYRADLDGVGVKALLETSEKITAVSLDVLDKRLFWIQYNREGSNSLICSCDYDGGSVHISKHPTQHNLFAMSLFGDRIFYSTWKMKTIWIANKHTGKDMVRINLHSSFVPLGELKVVHPLAQPKAEDDTWEPEQKLCKLRKGNCSSTVCGQDLQSHLCMCAEGYALSRDRKYCEDVNECAFWNHGCTLGCKNTPGSYYCTCPVGFVLLPDGKRCHQLVSCPRNVSECSHDCVLTSEGPLCFCPEGSVLERDGKTCSGCSSPDNGGCSQLCVPLSPVSWECDCFPGYDLQLDEKSCAASGPQPFLLFANSQDIRHMHFDGTDYGTLLSQQMGMVYALDHDPVENKIYFAHTALKWIERANMDGSQRERLIEEGVDVPEGLAVDWIGRRFYWTDRGKSLIGRSDLNGKRSKIITKENISQPRGIAVHPMAKRLFWTDTGINPRIESSSLQGLGRLVIASSDLIWPSGITIDFLTDKLYWCDAKQSVIEMANLDGSKRRRLTQNDVGHPFAVAVFEDYVWFSDWAMPSVMRVNKRTGKDRVRLQGSMLKPSSLVVVHPLAKPGADPCLYQNGGCEHICKKRLGTAWCSCREGFMKASDGKTCLALDGHQLLAGGEVDLKNQVTPLDILSKTRVSEDNITESQHMLVAEIMVSDQDDCAPVGCSMYARCISEGEDATCQCLKGFAGDGKLCSDIDECEMGVPVCPPASSKCINTEGGYVCRCSEGYQGDGIHCLDIDECQLGEHSCGENASCTNTEGGYTCMCAGRLSEPGLICPDSTPPPHLREDDHHYSVRNSDSECPLSHDGYCLHDGVCMYIEALDKYACNCVVGYIGERCQYRDLKWWELRHAGHGQQQKVIVVAVCVVVLVMLLLLSLWGAHYYRTQKLLSKNPKNPYEESSRDVRSRRPADTEDGMSSCPQPWFVVIKEHQDLKNGGQPVAGEDGQAADGSMQPTSWRQEPQLCGMGTEQGCWIPVSSDKGSCPQVMERSFHMPSYGTQTLEGGVEKPHSLLSANPLWQQRALDPPHQMELTQ
With B1 the “production of the mucus glycoprotein” value was “promoted”.

Source: patent publication US20040038369A1, “Airway-specific trypsin-like enzymes and method of using the same” (priority 2000, published 2004)
